test: soluble on expression in E. coli; label from the status in PepcDB or PDB records

| Sequence | soluble on expression in E. coli |
| --- | --- |
| GPGSMTTQNGVNYSQREVVHRMPDWVANRRASVNRGHVAPPLTADGMNPRKASFSGSNGEKQGAVYNNYTERVSSRSGGDRIFSFDNRSTSRRESGTNVSVRSLQPVAGRTAVTHTIRFRGARWSQALSNMSVALERAIKEDVAACCGISSERIGQMKMKFTDRLVVTFVLDHSHDPSEESRFHNQLKVYNFWRTVALYPRK | soluble |
| GPGSMVGPYNSKAGVVLVCDIFGLLPNSKRFADVLAEHGFLVAMPDFFGPLAWPESEWPADFQSMRWLQYVEKITQFDAFVPQMEAAIAVLRQMGCAKVGAIGMCWGAALPFMMAAQGKIDAAAAAHPSFFTADAVRAAKTPVLVLPSKDEPPMDDVEAAVNSHPMEPHVHKRFDALHHGFFGARYNPDAYTAEELKDVETARQLVLDFFKKSLH | not soluble |
| GPGSMVVAVYPGTFDPLTRGHEDLVRRASSIFDTLVVGVADSRAKKPFFSLEERLKIANEVLGHYPNVKVMGFTGLLKDFVRANDARVIVRGLRAVSDFEYEFQMAGMNRYLLPDVETMFMTPSDQYQFISGTIVREIAQLGGDVSKFVFPSVEKWLTEKVAAMAQGPSA | soluble |
| GPLGSEQIGKLRSELEMVSGNVRVMSEMLTELVPTQAEPADLELLQELNRTCRAMQQRVLELIPQIANEQLTEELLIVNDNLNNVFLRHERFERFRTGQTTKA | soluble |
| GPLGSGGGTIAMLNEISSDTLEQLYSLAFNQYQSGKYEDAHKVFQALCVLDHYDSRFFLGLGACRQAMGQYDLAIHSYEEGAVMDIKEPRFPFHAAECLLQKGELAEAESGLFLAQELIANKPEFKELSTRVSSMLEAIKLKKEMKHE | soluble |
| GPLGSMINAKTKVIGLIGHPVEHSFSPIMHNAAFKDKGLNYVYVAFDVLPENLKYVIDGAKALGIVGFNVTIPHKIEIMKYLDEIDKDAQLIGAVNTIKIEDGKAIGYNTDGIGARMALEEEIGRVKDKNIVIYGAGGAARAVAFELAKDNNIIIANRTVEKAEALAKEIAEKLNKKFGEEVKFSGLDVDLDGVDIIINATPIGMYPNIDVEPIVKAEKLREDMVVMDLIYNPLETVLLKEAKKVNAKTINGLGMLIYQGAVAFKIWTGVEPNIEVMKNAIIDKITK | soluble |
| GPLGSMPGPAAGSRARVYAEVNSLRSREYWDYEAHVPSWGNQDDYQLVRKLGRGKYSEVFEAINITNNERVVVKILKPVKKKKIKREVKILENLRGGTNIIKLIDTVKDPVSKTPALVFEYINNTDFKQLYQILTDFDIRFYMYELLKALDYCHSKGIMHRDVKPHNVMIDHQQKKLRLIDWGLAEFYHPAQEYNVRVASRYFKGPELLVDYQMYDYSLDMWSLGCMLASMIFRREPFFHGQDNYDQLVRIAKVLGTEELYGYLKKYHIDLDPHFNDILGQHSRKRWENFIHSENRHLVSPEALDLLDKLLRYDHQQRLTAKEAMEHPYFYPVVKEQSQ | soluble |
| GPLGSMSFTNATFSQVLDDLSARFILNLPAEEQSSVERLCFQIEQAHWFYEDFIRAQNDQLPSLGLRVFSAKLFAHCPLLWKWSKVHEEAFDDFLRYKTRIPVRGAIMLDMSMQQCVLVKGWKASSGWGFPKGKIDKDESDVDCAIREVYEETGFDCSSRINPNEFIDMTIRGQNVRLYIIPGISLDTRFESRTRKEISKIEWHNLMDLPTFKKNKPQTMKNKFYMVIPFLAPLKKWIKKRNIANNTTKEKNISVDVDADASSQLLSLLKS | soluble |
| GPLGSPEFPHPLQDSWSYYLFQFRKALDWDECLEKVATFSTIEDFWSVLTHTVRPREITYGKDLYMFKSDIMPKWEDPKNENGGRWLINVTARQDVDFLWDELLMLLIGSDWDTDEEDRQICGAVFQPRSRGSKLSVWLTSDNEEETILSIGRRIKERLELEDTIYFQPVSDQRSQTRGSDICTGKYEI | soluble |
| GPLGSTRAKTQEEIKREEEQAIDEVLKIEFLELALGYQLISLADMKQGGDLLERIRGIRKKIASDYGFLMPQIRIRDNLQLPPTHYEIKLKGIVIGEGMVMPDKFLAMNTGFVNREIEGIPTKEPAFGMDALWIDAKNKEEAIIQGYTIIDPSTVIATHTSELVKKYAEDFITKDEVKSLLERLAKDYPTIVEESKKIPTGAIRSVLQALLHEKIPIKDMLTILETITDIAPLVQNDVNILTEQVRARLSRVITNAFKSEDGRLKFLTFSTDSEQFLLNKLRENGTSKSLLLNVGELQKLIEGVSEEAMKVLQKGIAPVILIVEPNLRKALSNQMEQARIDVVVLSHAELDPNSNFEALGTIHIN | soluble |
| GPLPVDLRGKTAFVAGVADSNGYGWAICKLLRAAGARVLVGTWPPVYSIFKKGLESSRFEQDSFYAQEPSSKVAAEAAEKPVDLVFDKIYPLDAVFDTPQDVPPEVSSNKRYAGVGGFTISEVAEAVRADVGQIDILVHSLANGPEVTKPLLQTSRKGYLAAVSSSSYSFVSLLQHFLPLMKEGGSALALSYIASEKVIPGYGGGMSSAKAALESDCRTLAFEAGRARAVRVNCISAGPLKSRAASAIGKAGDKTFIDLAIDYSEANAPLQKELESDDVGRAALFLLSPLARAVTGATLYVDNGLHAMGQALDSKSLTP | soluble |
| GPPSGKTYMGWWGHMGGPKQKGITSYAVSPYAQKPLQGIFHNAVFNSFRRFKSQFLYVLIPAGIYWYWWKNGNEYNEFLYSKAGREELERVNV | soluble |
| GQGKLISVKTDVLDLTINTRGGDVEQALLPAYPKELNSTQPFQLLETSPQFIYQAQSGLTGRDGPDNPANGPRPLYNVEKDAYVLAEGQNELQVPMTYTDAAGNTFTKTFVLKRGDYAVNVNYNVQNAGEKPLEISSFGQLKQSITLPPHLDTGSSNFALHTFRGAAYSTPDEKYEKYKFDTIADNENLNISSKGGWVAMLQQYFATAWIPHNDGTNNFYTANLGNGIAAIGYKSQPVLVQPGQTGAMNSTLWVGPEIQDKMAAVAPHLDLTVDHHHHHH | soluble |
| GQVQLVESGPGLVAPSQSLSITCTVSGISLSRYNVHWVRQSPGKGLEWLGMIWGGGSIEYNPALKSRLSISKDNSKSQIFLKMNSLQTDDSAMYYCVSYGYGGDRFSYWGQGTLVTVS | soluble |
| GQYTFSMPSDSHVSSCSEDWVGYQRKCYFISTVKRSWTSAQNACSEHGATLAVIDSEKDMNFLKRYAGREEHWVGLKKEPGHPWKWSNGKEFNNWFNVTGSDKCVFLKNTEVSSMECEKNLYWICNKPYK | soluble |
| GSDHVDLREHVIDVPPQEVICKDNVVVTVDAVVYYQVIDPVKAVYNVSDFLMAIVKLAQTNLRAIIGEMELDETLSGRDIINARLREELDKITDRWGVKITRVEIQRIDPPKD | soluble |
| GSDLTYAYLVGLFEGDGYFSITKKGKYLTYELGIELSIKDVQLIYKIKKILGIGIVSFRKRNEIEMVALRIRDKNHLKSFILPIFEKYPMFSNKQYDYLRFRNALLSGIISLEDLPDYTRSDEPLNSIESIINTSYFSAWLVGFIEAEGCFSVYKLNKDDDYLIASFDIAQRDGDILISAIRKYLSFTTKVYLDKTNCSKLKVTSVRSVENIIKFLQNAPVKLLGNKKLQYLLWLKQLRKISRYSEKIKIPSNY | soluble |
| GSGYVFGGFIRADIKKWYIQPNIYYMYNSSSIDVNQTSTDVKSKSVNGDVLLGYRFFKFTDLTYLRLFAGPGYSNINTLKYDSCTSDYSTDNILLNAGVGLDFWKLTFDLKYQRGLTDIDKSSNTMHTSLFMLTAGFKIL | not soluble |
| GSHMASDLKNPYERIQAEAYDAMSGIQTEGTDDDGGGDNIGWINDGDWVKYERVHFERDASSIEVRVASDTPGGRIEIRTGSPTGTLLGDVQVPNTGGWQQWQTVTGNVQIQPGTYDVYLVFKGSPEYDLMNVNWFVFRANG | soluble |
| GSHMASMTGGQQMGRGSWKRAFLAFGSNIGDRFKHIQMALQLLSREKTVKLRNISSIFESEPMYFKDQTPFMNGCVEVETLLTPSELLKLCKKIEYEELQRVKHFDNGPRTIDLDIVMFLNSAGEDIIVNEPDLNIPHPRMLERTFVLEPLCELISPVHLHPVTAEPIVDHLKQLYDKQHDEDTLWKLVPLPYRSGVEPRFLKFKTATKLDEFTGETNRITVSPTYIMAIFNATPDSFSDGGEHFADIESQLNDIIKLCKDALYLHESVIIDVGGCSTRPNSIQASEEEEIRRSIPLIKAIRESTELPQDKVILSIDTYRSNVAKEAIKVGVDIINDISGGLFDSNMFAVIAENPEICYILSHTRGDISTMNRLAHYENFALGDSIQQEFVHNTDIQQLDDLKDKTVLIRNVGQEIGERYIKAIDNGVKRWQILIDPGLGFAKTWKQNLQIIRHIPILKNYSFTMNSNNSQVYVNLRNMPVLLGPSRKKFIGHITKDVDAKQRDFATGAVVASCIGFGSDMVRVHDVKNCSKSIKLADAIYKGLE | soluble |
| GSHMASPPTHNAHNWRLGQAPANWYNDTYPLSPPQRTPAGIRYRIAVIADLDTESRAQEENTWFSYLKKGYLTLSDSGDKVAVEWDKDHGVLESHLAYKGRGMELSDLIVFNGKLYSVDDRTGVVYQIEGSKAVPWVILSDGDGTVEKGFKAEWLAVKDERLYVGGLGKEWTTTTGDVVNENPEWVKVVGYKGSVDHENWVSNYNALRAAAGIQPPGYLIHESACWSDTLQRWFFLPRRASQERYSEKDDERKGANLLLSASPDFGDIAVSHVGAVVPTHGFSSFKFIPNTDDQIIVALKSEEDSGRVASYIMAFTLDGRFLLPETKIGSVKYEGIEFI | soluble |
| GSHMDLLDPVDILSKMPKDFYDKLEEKKWTLRKESLEVLEKLLTDHPKLENGEYGALVSALKKVITKDSNVVLVAMAGKCLALLAKGLAKRFSNYASACVPSLLEKFKEKKPNVVTALREAIDAIYASTSLEAQQESIVESLSNKNPSVKSETALFIARALTRTQPTALNKKLLKLLTTSLVKTLNEPDPTVRDSSAEALGTLIKLMGDKAVTPLLADVDPLKMAKIKECQEKAEIKIKVAG | soluble |
| GSHMEKRTPHTRLSQVKKLVNAGQVRTTRSALLNADELGLDFDGMCNVIIGLSESDFYKSMTTYSDHTIWQDVYRPRLVTGQVYLKITVIHDVLIVSFKEK | soluble |
| GSHMFMPSDRSTERCETVLEGETISCFVVGGEKRLCLPQILNSVLRDFSLQQINAVCDELHIYCSRCTADQLEILKVMGILPFSAPSCGLITKTDAERLCNALLYG | soluble |
| GSHMGGRLEGLTQDLRQLQESEQQLDHLMNICTTQLRLLSEDTDSQRLAYVTCQDLRSIADPAEQMVMVIKAPPETQLQAVDSSENFQISLKSKQGPIDVFLCPEE | soluble |
| GSHMGKDCIMHGYMSKMGNPFLTQWQRRYFYLFPNRLEWRGEGEAPQSLLTMEEIQSVEETQIKERKCLLLKIRGGKQFILQCDSDPELVQWKKELRDAYREAQQLVQRVPKMKNKPRS | soluble |
| GSHMNIITVTLNMEKYNFLGISIVGQSNERGDGGIYIGSIMKGGAVAADGRIEPGDMLLQVNDMNFENMSNDDAVRVLRDIVHKPGPIVLTVAKSGGGGEIVLWSDIP | soluble |
| GSHMRRYIGVMMLTLSPSILAELQLREPSFPDVQHGVLIHKVILGSPAHRAGLRPGDVILAIGEQMVQNAEDVYEAVRTQSQLAVQIRRGRETLTLYVTPEVTEGGGWTMFWV | soluble |
| GSHMTRETERFPAREFQRDLLDWFARERRDLPWRKDRDPYKVWVSEVMLQQTRVETVIPYFEQFIDRFPTLEALADADEDEVLKAWEGLGYYSRVRNLHAAVKEVKTRYGGKVPDDPDEFSRLKGVGPYTVGAVLSLAYGVPEPAVDGNVMRVLSRLFLVTDDIAKPSTRKRFEQIVREIMAYENPGAFNEALIELGALVCTPRRPSCLLCPVQAYCQAFAEGVAEELPVKMKKTAVKQVPLAVAVLADDEGRVLIRKRDSTGLLANLWEFPSCETDGADGKEKLEQMVGEQYGLQVELTEPIVSFEHAFSHLVWQLTVFPGRLVHGGPVEEPYRLAPEDELKAYAFPVSHQRVWREYKEWASGVRPPP | soluble |
